Assay [1] deals with T1, human recombinant TGF-b1 (human, UniProt P01137 279-390).
T1 construct: also called TGF-β1; hTGF-β1
Nature of the assay: ELISA, scFv culture on plate-coated TGF-b1, anti-cmyc detection. Background: ELISA stands for enzyme-linked immunosorbent assay.

Assay [2] has as its target T1, human recombinant TGF-b1. As to the kind of experiment: phage ELISA on plate-coated TGF-b1, anti-fd detection. The protocol: (§1) To perform the ELISA a 96-well maxisorp Nunc-immunoplate (Thermo Scientific, cat. #2022-10) was coated with 50 μl/well of human recombinant TGF-b1 (Acrobiosystems, cat. #TG1-H4212), TGF-b2 (R&D Systems, cat. #302-B2-010) and human recombinant TGF-b3 (Shenandoah Biotechnology, cat. #100-109) at 500 ng/ml in PBS at 4° C. overnight. Wells were blocked by the direct addition of 230 μl of block solution (5% skimmed milk/0.05% Tween20 in PBS) without first washing the plate. Blocking was carried out for 45 min with gentle agitation. Concurrently, the bacterial cultures containing the expressed scFv and the rescued phage were blocked by the direct addition of 120 μl of block solution. The blocked maxisorp plate was washed 3× with PBST (PBS+0.1% Tween20) before applying 150 μl of blocked scFv or phage culture to the wells. Incubation was performed for 1 h at room temperature with gentle agitation before washing of the wells with 4×PBST.
For the phage ELISA, 100 μl of primary rabbit anti-fd bacteriophage Ab (Sigma, cat. #B7786) diluted 1/1000 in PBS+1% BSA was added to wells followed by a 1 h incubation at room temperature with gentle agitation. The plate was washed 4× with PBST before the addition of 100 μl of secondary mouse anti-rabbit IgG (Y-chain specific) HRP conjugate (Sigma, cat. #A1949) diluted 1/15000 in PBS+1% BSA. […]

In assay [3] the target is T1, human recombinant TGF-b1. Nature of the assay: SPR (Biacore T200), 10 nM Fab over amine-coupled TGFb1 (492 RUs); reference of the ranking. Here is the method:
FIG. 27 provides Biacore analysis of the new mutant variant antibodies and compares the new mutants versus parent variant 13A1-2F and versus mu13A1. Selected variants have different monovalent (huIgG1 stabilized Fab format). Biacore binding kinetics, range from lower to higher than the parental mouse 13A1 (mu13A1, hybrid with mouse VK/VH and huCK/huCH1). The data presented is ka, kd and apparent KD. TGFb1 (chip): 492 Rus, Fabs: 10 nM, Flow rate: 30 ul/min, Contact time: 510s, Diss. Time: 600s. Quality: Chi(2)<=1% Rmax and U score <=5. Data is presented for mutant variant antibodies 13A1_AF, 13A1_AG, 13A1_AH, 13A1_BF, 13A1_BG, 13A1_BH, 13A1_CF, 13A1_CG, 13A1_CH, 13A1_DF, 13A1_DG, 13A1_DH, 13A1_EF, 13A1_EG and 13A1_EH.
SPR binding analysis of Fabs: Experiments were performed using the Biacore T200 equipped with the Series S sensor chip CMS (GE Healthcare, cat. #BR-1005-30). The instrument temperature was set at 25° C. for all steps in the analysis while the compartment temperature was set at 10° C. All the assays were performed using the running buffer HBS-EP+ 1×. Recombinant TGF-β1 (Biocat, cat. #TG1-H4212-50 ug-AC) was immobilized with the standard amine-coupling chemistry using a solution of the ligand at 1 ug/mL in acetate, pH 4.5. Recombinant TGF-β1 was injected for several minutes to achieve a target density of 492 RUs. […]
A general note: SPR reads the build-up and loss of mass on a sensor chip optically.

The target in assay [4] is T1, human recombinant TGF-b1. Nature of the assay: competition ELISA on hTGF-β1-coated plate; competitor biotinylated murine 13A1. Here is the method:
Nunc Maxisorb ELISA plates were coated overnight at 8° C. with 0.5 μg/ml hTGF-β1 (Peter Sun, NIH) or hTGF-β3 (Shenandoah Biotech) at 0.5 μg/ml in 40 mM glycine buffer pH 9. Plates were washed and blocked with 10% FCS for 1 h at 37° C. In a separate low binding Greiner Bio-One ELISA plate, various concentrations of competing Abs were mixed with a constant concentration of biotinylated parental 13A1 or 1901 at 200 ng/ml in PBS+BSA (10 mg/ml) and then transferred onto the TGF-β-coated Nunc Maxisorb ELISA plate. After incubation for 2 h at 37° C. plates were washed, Avidine-HRP added and incubated for 1 h at 37° C. Plates washed again, TMB substrate was added and bound biotinylated antibody was quantitated by measuring color development in an ELISA reader at a wave length of 450 nm.
The potency of the humanized LCR13A1 IgG4 antibody variants to compete with the parental murine antibody for binding to TGFb1 was assessed by ELISA. The six IgG4 variants LCR13A1_VH_GLv3_LCR13A1_VK_GLv3 (LCR13A1-2A), LCR13A1_VH_GLv1_03_LCR13A1_VK_GLv3 (LCR13A1-2B), LCR13A1_VH_GLv3_LCR13A1_VK_GLv1_03 (LCR13A1-2C), LCR13A1_VH_GLv1_03_LCR13A1_VK_GLv1_03 (LCR13A1-2D), LCR13A1_VH_GLv1_03_LCR13A1_VK_GLv1_04 (LCR13A1-2E) and LCR13A1_VH_GLv1_03_LCR13A1_VK_GLv1_05 (LCR13A1-2F) competed with the parental murine 13A1 antibody for binding to TGFb1 in a dose-dependent manner (FIG. 17).

Assay [5] deals with T1, human recombinant TGF-b1. As to the kind of experiment: TGFb specificity ELISA, HEK293-6E supernatant.
The target in assay [6] is T1, human recombinant TGF-b1. As to the kind of experiment: ELISA, soluble scFv on plate-coated TGFb isoforms. The protocol:
as §1
For the scFv ELISA, 100 μl of primary mouse 9E10 anti-cmyc Ab diluted 1/1000 in PBS+1% BSA was added to wells, followed by a 1 h incubation at room temperature with gentle agitation. […] The ELISA was developed by the addition of 100 μl/well of TMB substrate (ThermoFischer Scientific, cat. #34021), stabilized with 50 μl/well of stop solution (2N sulfuric acid) and absorbance signals read at 450 nm and 620 nm.

Data on eleven molecules can be found in patent US20210403546A1 (LUDWIG INSTITUTE FOR CANCER RESEARCH, published 2021).

T1 sequence (P01137 279-390 limits assumed): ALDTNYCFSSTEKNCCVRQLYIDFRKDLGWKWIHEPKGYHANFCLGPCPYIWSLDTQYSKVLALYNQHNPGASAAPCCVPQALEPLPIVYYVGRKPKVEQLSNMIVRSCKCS

B1: LCR13A1_scFv (soluble scFv of murine 13A1) (scFv)
scFv: DIVLTQSPASLAVSLGQRATISCRASESVDNYGISFLNWFQQKPGQPPKLLIYAASNQGSGVPARFSGSGSGTDFSLNIHPMEEDDTGMYFCQQSKEVPRTFGGGTKLEIKRTVAARQEGGSGEGGSGESNAAAEVQLQQSGTVLARPGASVKMSCKTSGYTFTNYWMHWVRQRPGQGLEWIGTIYPGNSDTNYNQKFKDKAKLTAVTSATTAYMELSSLTNEDSAVYFCTREDSRSLYYNGWDYFDYWGQGTLVTVSSASTKAS
notes: Orientation VL-linker-VH; expressed in E. coli from pCHV101; also called LCR13A1 soluble scFv
With B1, the binding result in assay [1] was “binds”.

B2: LCR13A1 Phage (murine 13A1 scFv fused to pIII on filamentous phage) (scFv)
scFv: DIVLTQSPASLAVSLGQRATISCRASESVDNYGISFLNWFQQKPGQPPKLLIYAASNQGSGVPARFSGSGSGTDFSLNIHPMEEDDTGMYFCQQSKEVPRTFGGGTKLEIKRTVAARQEGGSGEGGSGESNAAAEVQLQQSGTVLARPGASVKMSCKTSGYTFTNYWMHWVRQRPGQGLEWIGTIYPGNSDTNYNQKFKDKAKLTAVTSATTAYMELSSLTNEDSAVYFCTREDSRSLYYNGWDYFDYWGQGTLVTVSSASTKAS
notes: not shown: pIII coat protein of filamentous bacteriophage (fusion partner from phagemid pCHV101)
On to B2, for which the binding result in assay [2] is reported as “binds”.

B3: 13A1 mouse parental hybrid stabilized Fab (mu13A1) (Fab, V domains shown)
VH: EVQLQQSGTVLARPGASVKMSCKTSGYTFTNYWMHWVRQRPGQGLEWIGTIYPGNSDTNYNQKFKDKAKLTAVTSATTAYMELSSLTNEDSAVYFCTREDSRSLYYNGWDYFDYWGQGTTLTVSS
VL: not shown
notes: also called parental mouse Fab [chimeric, mVHhCH1/mVKhCK]; LCR13A1_VK(murine) + LCR13A1_VH(murine)
As for B3, the binding result in assay [3] was “binds”.

B4: LCR13A1_VH_GLv1_03_LCR13A1_VK_GLv3 (LCR13A1-2B) IgG4[S228P] (antibody, V domains shown)
VH: QVQLVQSGSVLAKPGASVKVSCKASGYTFTNYWMHWVRQAPGQGLEWIGTIYPGNSDTNYNQKFKDRAKLTAVTSTSTVYMELSSLRSEDTAVYYCTREDSRSLYYNGWDYFDYWGQGTLVTVSS
VL: DIVMTQSPDSLAVSLGERATINCKSSESVDNYGISFLNWFQQKPGKAPKLLIYAASNQGSGVPDRFSGSGSGTDFTLTISSLQAEDVAVYFCQQSKEVPRTFGGGTKLEIKR
notes: VK + CK*01; also called Ab 2B
Turning to B4, in assay [4], the binding result is reported as “binds”.

B5: LCR13A1_VH_GLv1_03_LCR13A1_VK_GLv1_05 (LCR13A1-2F) IgG4[S228P] (antibody, V domains shown)
VH: QVQLVQSGSVLAKPGASVKVSCKASGYTFTNYWMHWVRQAPGQGLEWIGTIYPGNSDTNYNQKFKDRAKLTAVTSTSTVYMELSSLRSEDTAVYYCTREDSRSLYYNGWDYFDYWGQGTLVTVSS
VL: DIVMTQSPDSLAVSLGERATISCRASESVDNYGISFLNWFQQKPGQPPKLLIYAASNQGSGVPSRFSGSGSGTDFTLNIHPLEAEDAATYYCQQSKEVPRTFGGGTKVEIKR
notes: VK + CK*01; also called Ab 2F; hIgG4 13A1-2F
In the case of B5, the binding result in assay [4] is “binds”.

B6: LCR13A1_VH_GLv1_03_LCR13A1_VK_GLv1_03 (LCR13A1-2D) IgG4(S228P) (antibody, V domains shown)
VH: QVQLVQSGSVLAKPGASVKVSCKASGYTFTNYWMHWVRQAPGQGLEWIGTIYPGNSDTNYNQKFKDRAKLTAVTSTSTVYMELSSLRSEDTAVYYCTREDSRSLYYNGWDYFDYWGQGTLVTVSS
VL: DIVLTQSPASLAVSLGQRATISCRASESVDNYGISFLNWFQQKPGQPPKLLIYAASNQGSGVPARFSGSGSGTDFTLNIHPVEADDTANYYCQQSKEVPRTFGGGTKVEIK
notes: Human IgG4 (IGHG4*01 with S228P) and human CK*01; also called Ab 2D
For B6, the binding result in assay [4] is “binds”.

B7: LCR13A1_VH_GLv1_03_LCR13A1_VK_GLv1_04 (LCR13A1-2E) IgG4(S228P) (antibody, V domains shown)
VH: QVQLVQSGSVLAKPGASVKVSCKASGYTFTNYWMHWVRQAPGQGLEWIGTIYPGNSDTNYNQKFKDRAKLTAVTSTSTVYMELSSLRSEDTAVYYCTREDSRSLYYNGWDYFDYWGQGTLVTVSS
VL: DIVLTQSPASLAVSLGQRATISCRASESVDNYGISFLNWFQQKPGQPPKLLIYAASNQGSGVPSRFSGSGSGTDFTLNIHPLEAEDAAAYYCQQSKEVPRTFGGGTKVEIK
notes: Human IgG4 (IGHG4*01 with S228P) and human CK*01; also called Ab 2E
B7: the binding result in assay [4] is recorded as “binds”.

B8: LCR13A1_VH_GLv3_LCR13A1_VK_GLv3 (LCR13A1-2A) IgG4(S228P) (antibody, V domains shown)
VH: QVQLVQSGSELKKPGASVKVSCKTSGYTFTNYWMHWVRQAPGQGLEWIGTIYPGNSDTNYNQKFQGRVTITRDTSASTAYMELSSLRSEDTAVYFCTREDSRSLYYNGWDYFDYWGQGTTVTVSS
VL: DIVMTQSPDSLAVSLGERATINCKSSESVDNYGISFLNWFQQKPGKAPKLLIYAASNQGSGVPDRFSGSGSGTDFTLTISSLQAEDVAVYFCQQSKEVPRTFGGGTKLEIK
notes: Human IgG4 (IGHG4*01 with S228P) and human CK*01; also called Ab 2A
Regarding B8, the binding result in assay [4] is recorded as “binds”.

B9: 13A1_Glv1 (graft) human IgG1 (antibody, V domains shown)
VH: QVQLVQSGAEVKKPGASVKVSCKASGYTFTNYWMHWVRQAPGQGLEWIGTIYPGNSDTNYNQKFKGRVTMTRDTSTSTVYMELSSLRSEDTAVYYCTREDSRSLYYNGWDYFDYWGQGTLVTVSS
VL: DIVLTQSPASLAVSPGQRATITCRASESVDNYGISFLNWYQQKPGQPPKLLIYAASNQGSGVPARFSGSGSGTDFTLTINPVEADDTANYYCQQSKEVPRTFGGGTKVEIK
notes: also called LCR13A1_GLv1; grafted human IgG1 13A1
B9: the binding result in assay [5] was “binds”.

B10: LCR13A1_VH_GLv3_LCR13A1_VK_GLv1_03 (LCR13A1-2C) IgG4(S228P) (antibody, V domains shown)
VH: QVQLVQSGSELKKPGASVKVSCKTSGYTFTNYWMHWVRQAPGQGLEWIGTIYPGNSDTNYNQKFQGRVTITRDTSASTAYMELSSLRSEDTAVYFCTREDSRSLYYNGWDYFDYWGQGTTVTVSS
VL: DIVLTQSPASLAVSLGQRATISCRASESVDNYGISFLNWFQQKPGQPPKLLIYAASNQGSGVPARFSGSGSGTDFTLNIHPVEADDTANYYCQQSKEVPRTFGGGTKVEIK
notes: Human IgG4 (IGHG4*01 with S228P) and human CK*01; also called Ab 2C
With B10, the binding result in assay [4] is given as “binds”.

B11: 13A1_GLv1_scFv (CDR-grafted scFv, IGKV7-3*01/IGHV1-46*01) (scFv)
scFv: DIVLTQSPASLAVSPGQRATITCRASESVDNYGISFLNWYQQKPGQPPKLLIYAASNQGSGVPARFSGSGSGTDFTLTINPVEADDTANYYCQQSKEVPRTFGGGTKLEIKRTVAARQEGGSGEGGSGESNAAAQVQLVQSGAEVKKPGASVKVSCKASGYTFTNYWMHWVRQAPGQGLEWIGTIYPGNSDTNYNQKFKGRVTMTRDTSTSTVYMELSSLRSEDTAVYYCTREDSRSLYYNGWDYFDYWGQGTLVTVSSASTKAS
notes: Orientation VK-linker-VH; expressed in E. coli from pCHV101; also called LCR13A1_Glv1 scFv
Regarding B11, the binding result in assay [6] is “binds”.
